The text below walks through data of paper PMC4854876.

This assay concerns the target human hemoglobin (human) (UniProt P69905). Kind of assay: SPR.
UniProt P69905, sequence (P69905 whole entry, chain 1 of 2): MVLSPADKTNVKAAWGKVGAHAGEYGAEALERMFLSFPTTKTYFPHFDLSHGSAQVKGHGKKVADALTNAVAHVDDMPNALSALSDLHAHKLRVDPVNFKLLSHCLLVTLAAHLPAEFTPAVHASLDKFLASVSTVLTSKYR
UniProt P69905, sequence (P68871 whole entry, chain 2 of 2, further chain): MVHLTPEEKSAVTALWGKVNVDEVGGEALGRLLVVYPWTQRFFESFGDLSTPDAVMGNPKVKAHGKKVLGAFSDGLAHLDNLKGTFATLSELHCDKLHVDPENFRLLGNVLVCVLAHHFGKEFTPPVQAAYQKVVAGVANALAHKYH

With “Spbhp-37 recombinant protein without the GST tag (natural protein)”, the Kd (commonly the concentration at which binding is half-saturated) was 357 nM.
